Our source for the binding signal values is PMC3210382.

In the series the target is BoNT/A toxoid (formaldehyde-inactivated botulinum neurotoxin type A, 150 kDa) (UniProt P0DPI1 2-1296). Briefly: […].
BoNT/A toxoid (formaldehyde-inactivated botulinum neurotoxin type A, 150 kDa), sequence (P0DPI1 2-1296): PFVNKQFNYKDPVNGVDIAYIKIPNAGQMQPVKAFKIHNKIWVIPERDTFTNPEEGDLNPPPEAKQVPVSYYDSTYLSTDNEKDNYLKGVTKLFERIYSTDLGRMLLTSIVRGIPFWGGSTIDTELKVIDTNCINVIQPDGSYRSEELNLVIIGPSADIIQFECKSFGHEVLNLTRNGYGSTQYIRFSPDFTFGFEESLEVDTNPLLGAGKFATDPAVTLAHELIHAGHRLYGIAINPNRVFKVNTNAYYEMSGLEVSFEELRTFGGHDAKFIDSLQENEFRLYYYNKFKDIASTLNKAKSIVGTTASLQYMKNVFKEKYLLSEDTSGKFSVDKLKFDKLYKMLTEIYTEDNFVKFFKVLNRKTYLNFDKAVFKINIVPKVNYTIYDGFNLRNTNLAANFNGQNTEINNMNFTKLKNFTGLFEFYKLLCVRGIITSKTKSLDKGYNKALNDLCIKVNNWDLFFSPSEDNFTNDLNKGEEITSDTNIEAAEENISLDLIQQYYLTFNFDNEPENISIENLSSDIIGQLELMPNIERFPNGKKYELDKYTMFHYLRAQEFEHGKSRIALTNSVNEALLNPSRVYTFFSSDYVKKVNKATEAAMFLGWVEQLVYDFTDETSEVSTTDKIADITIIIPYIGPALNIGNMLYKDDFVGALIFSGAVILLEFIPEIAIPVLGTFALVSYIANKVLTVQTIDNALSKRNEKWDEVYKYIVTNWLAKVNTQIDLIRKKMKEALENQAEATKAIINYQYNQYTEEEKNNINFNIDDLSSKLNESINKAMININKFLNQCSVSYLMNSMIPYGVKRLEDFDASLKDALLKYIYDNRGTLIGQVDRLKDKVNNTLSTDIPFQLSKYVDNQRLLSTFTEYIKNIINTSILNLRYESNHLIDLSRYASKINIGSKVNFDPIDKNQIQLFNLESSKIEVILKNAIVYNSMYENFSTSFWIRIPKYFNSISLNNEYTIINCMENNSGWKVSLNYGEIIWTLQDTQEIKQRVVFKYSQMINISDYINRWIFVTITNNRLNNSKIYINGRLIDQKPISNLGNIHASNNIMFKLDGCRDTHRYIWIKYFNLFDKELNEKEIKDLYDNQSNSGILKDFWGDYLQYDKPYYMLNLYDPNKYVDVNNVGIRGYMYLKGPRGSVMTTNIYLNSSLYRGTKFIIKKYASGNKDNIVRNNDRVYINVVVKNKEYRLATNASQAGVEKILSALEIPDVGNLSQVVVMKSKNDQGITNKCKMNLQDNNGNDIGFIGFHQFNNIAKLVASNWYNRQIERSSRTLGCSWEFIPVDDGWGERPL

B1: BoNT/A aptamer (76 nt) (ssDNA)
DNA: ATACCAGCTTATTCAATTGACATGACTGGGATTTTTGGCGAAATCGAAGGAAGCGGAGAGATAGTAAGTGCAATCT
With B1, the binding signal is ~3.8 signal-to-background ratio.
